Consider one protein from patent US9422541.

This data set has as its target T1, Recombinant C5a produced as an N-term His-tagged fusion (HT-C5a).
T1 chain: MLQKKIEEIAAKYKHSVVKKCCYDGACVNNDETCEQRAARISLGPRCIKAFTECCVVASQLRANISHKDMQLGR

B1: ScpA, bacterial C5a protease from Streptococcus pyogenes (protein)
chain: DANDLAPQAPAKTADTPATSKATIRDLNDPSQVKTLQEKAGKGAGTVVAVIDAGFDKNHEAWRLTDKTKARYQSKEDLEKAKKEHGITYGEWVNDKVAYYHDYSKDGKTAVDQEHGTHVSGILSGNAPSETKEPYRLEGAMPEAQLLLMRVEIVNGLADYARNYAQAIRDAVNLGAKVINMSFGNAALAYANLPDETKKAFDYAKSKGVSIVTSAGNDSSFGGKTRLPLADHPDYGVVGTPAAADSTLTVASYSPDKQLTETAMVKTDDQQDKEMPVLSTNRFEPNKAYDYAYANRGMKEDDFKDVKGKIALIERGDIDFKDKVANAKKAGAVGVLIYDNQDKGFPIELPNVDQMPAAFISRKDGLLLKDNPQKTITFNATPKVLPTASGTKLSRFSSWGLTADGNIKPDIAAPGQDILSSVANNKYAKLSGTSMSAPLVAGIMGLLQKQYETQYPDMTPSERLDLAKKVLMSSATALYDEDEKAYFSPRQQGAGAVDAKKASAATMYVTDKDNTSSKVHLNNVSDKFEVTVTVHNKSDKPQELYYQATVQTDKVDGKHFALAPKVLYEASWQKITIPANSSKQVTVPIDASRFSKDLLAQMKNGYFLEGFVRFKQDPTKEELMSIPYIGFRGDFGNLSAVEKPIYDSKDGSSYYHEANSDAKDQLDGDGLQFYALKNNFTALTTESNPWTIIKAVKEGVENIEDIESSEITETIFAGTFAKQDDDSHYYIHRHANGEPYAAISPNGDGNRDYVQFQGTFLRNAKNLVAEVLDKEGNVVWTSEVTEQVVKNYNNDLASTLGSTRFEKTRWDGKDKDGKVVANGTYTYRVRYTPISSGAKEQHTDFDVIVDNTTPEVATSATFSTEDRRLTLASKPKTSQPVYRERIAYTYMDEDLPTTEYISPNEDGTFTLPEEAETMEGATVPLKMSDFTYVVEDMAGNITYTPVTKLLEGHS
Turning to B1, the “C5a-ase activity (SDS-PAGE of C5a treated with ScpA; 42 nM ScpA with 37 µM HT-C5a, 30 min at 20° C.)” value was “the ScpA cleaved C5a at a single site” and the “mass loss of cleaved HT-C5a by MALDI-TOF MS” value was “a loss of 830 Da, consistent with the removal of seven residues from the C terminal”.
